The values that follow come from US20150266922A1.

Assay [1] deals with Dipeptidyl peptidase 9 (DPP9), recombinant wild-type (human) (UniProt Q86TI2). The assay is described as follows: cell-based or functional assay.
For assay [2] the target is unchanged. The assay is described as follows: enzyme kinetics, GP-AMC hydrolysis by 25 nM recombinant DPP9 with 0, 5 or 20 µM peptide.
Assay [3] has as its target Dipeptidyl peptidase 8 (DPP8), recombinant (human) (UniProt Q6V1X1). As to the kind of experiment: cell-based or functional assay.
For assay [4] the target is unchanged. As to the kind of experiment: ratio of Ki values, DPP8 against DPP9.
In assay [5] the target is Dipeptidyl peptidase 9 (DPP9), recombinant wild-type (human) (UniProt Q86TI2). As to the kind of experiment: ratio of Ki values for DPP9, reference EIL peptide.
The target of assay [6] is Dipeptidyl peptidase 8 (DPP8), recombinant (human) (UniProt Q6V1X1). The assay is described as follows: enzyme kinetics, GP-AMC hydrolysis by recombinant DPP8.
Assay [7] deals with Dipeptidyl peptidase 9 (DPP9), recombinant wild-type (human) (UniProt Q86TI2). As to the kind of experiment: enzyme kinetics, GP-AMC hydrolysis by recombinant DPP9.

Chain of Dipeptidyl peptidase 8 (DPP8), recombinant (human) (Q6V1X1 whole entry, form in doubt): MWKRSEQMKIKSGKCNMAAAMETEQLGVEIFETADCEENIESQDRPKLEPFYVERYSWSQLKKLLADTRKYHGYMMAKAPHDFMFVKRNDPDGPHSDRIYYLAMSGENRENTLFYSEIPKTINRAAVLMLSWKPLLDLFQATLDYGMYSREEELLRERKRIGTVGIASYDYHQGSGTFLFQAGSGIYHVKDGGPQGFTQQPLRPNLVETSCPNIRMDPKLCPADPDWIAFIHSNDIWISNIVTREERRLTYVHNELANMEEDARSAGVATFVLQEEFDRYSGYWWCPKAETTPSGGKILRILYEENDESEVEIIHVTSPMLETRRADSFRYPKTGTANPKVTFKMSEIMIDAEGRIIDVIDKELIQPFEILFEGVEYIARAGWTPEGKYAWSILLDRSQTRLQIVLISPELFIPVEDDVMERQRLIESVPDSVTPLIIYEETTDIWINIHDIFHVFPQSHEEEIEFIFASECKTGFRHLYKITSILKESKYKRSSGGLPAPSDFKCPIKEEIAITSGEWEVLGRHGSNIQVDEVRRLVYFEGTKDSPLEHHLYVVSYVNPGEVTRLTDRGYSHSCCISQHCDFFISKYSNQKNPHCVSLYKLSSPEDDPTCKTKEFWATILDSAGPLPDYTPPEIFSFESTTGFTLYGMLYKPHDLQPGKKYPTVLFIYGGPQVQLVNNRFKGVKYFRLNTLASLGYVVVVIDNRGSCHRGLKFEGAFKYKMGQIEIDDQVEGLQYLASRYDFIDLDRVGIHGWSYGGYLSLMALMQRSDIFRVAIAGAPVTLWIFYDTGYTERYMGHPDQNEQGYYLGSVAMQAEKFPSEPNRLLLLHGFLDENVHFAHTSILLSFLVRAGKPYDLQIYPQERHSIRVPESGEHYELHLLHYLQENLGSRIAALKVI
Chain of Dipeptidyl peptidase 9 (DPP9), recombinant wild-type (human) (Q86TI2 other isoform, or with tags, fused parts or gaps limits assumed, form in doubt): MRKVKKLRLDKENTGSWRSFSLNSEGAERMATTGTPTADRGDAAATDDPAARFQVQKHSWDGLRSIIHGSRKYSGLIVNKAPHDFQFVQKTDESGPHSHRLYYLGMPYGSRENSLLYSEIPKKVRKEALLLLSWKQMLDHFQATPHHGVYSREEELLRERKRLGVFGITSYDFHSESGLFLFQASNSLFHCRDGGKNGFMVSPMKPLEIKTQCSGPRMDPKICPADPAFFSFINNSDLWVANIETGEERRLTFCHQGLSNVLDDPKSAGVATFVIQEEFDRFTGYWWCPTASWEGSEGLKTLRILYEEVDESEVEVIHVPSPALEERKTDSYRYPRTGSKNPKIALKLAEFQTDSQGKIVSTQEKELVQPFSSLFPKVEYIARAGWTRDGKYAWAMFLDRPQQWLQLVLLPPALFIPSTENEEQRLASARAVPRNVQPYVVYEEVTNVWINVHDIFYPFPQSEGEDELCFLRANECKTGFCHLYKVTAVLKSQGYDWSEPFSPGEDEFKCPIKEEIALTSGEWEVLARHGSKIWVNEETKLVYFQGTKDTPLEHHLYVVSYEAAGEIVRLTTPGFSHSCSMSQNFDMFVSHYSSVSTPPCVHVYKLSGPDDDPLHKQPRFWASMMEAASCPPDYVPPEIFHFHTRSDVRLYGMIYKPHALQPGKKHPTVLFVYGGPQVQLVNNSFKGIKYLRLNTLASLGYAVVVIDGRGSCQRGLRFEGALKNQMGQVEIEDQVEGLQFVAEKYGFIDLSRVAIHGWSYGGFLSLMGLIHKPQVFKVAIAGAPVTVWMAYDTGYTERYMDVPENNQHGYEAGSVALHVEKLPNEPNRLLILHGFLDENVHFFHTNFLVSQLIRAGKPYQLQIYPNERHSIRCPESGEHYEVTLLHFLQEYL

As a reminder, the Ki is a measure of affinity in units of concentration, obtained from inhibition or displacement. Turning to SLRFLFEG (SEQ ID NO: 37) (peptide), the % DPP9 activity (Mean), 10 µM peptide in assay [1] was determined as 24.1%. For the same substance, the Ki in assay [2] stood at 2000 nM.
On to SUMO1 (from UniProt P63165 1-97), for which the AMC release from GP-AMC in the unbound fraction (depleted lysates) in assay [3] and in assay [1] was 40% each time.
For the substance SLRFLYEG (SEQ ID NO: 38) (peptide), in assay [1], the % DPP9 activity (Mean), 10 µM peptide worked out at 10.9%. For the same substance, the fold lower affinity compared to DPP9 in assay [4] was 9 fold. In addition, the fold increased efficiency compared to the EIL peptide in assay [5] came to 18.5 fold. Further, the Ki was found to be 3600 nM in assay [6] and 400 nM in assay [7].
